The target of the assay is human CD40 on cells (HEK293 stable transfectants, HEK-Blue CD40 cells, human B cells, monocytic cells, dendritic cells) (human) (UniProt P25942). Kind of assay: cell-based or functional assay.
Sequence of human CD40 on cells (HEK293 stable transfectants, HEK-Blue CD40 cells, human B cells, monocytic cells, dendritic cells) (human) (P25942 21-277 limits assumed): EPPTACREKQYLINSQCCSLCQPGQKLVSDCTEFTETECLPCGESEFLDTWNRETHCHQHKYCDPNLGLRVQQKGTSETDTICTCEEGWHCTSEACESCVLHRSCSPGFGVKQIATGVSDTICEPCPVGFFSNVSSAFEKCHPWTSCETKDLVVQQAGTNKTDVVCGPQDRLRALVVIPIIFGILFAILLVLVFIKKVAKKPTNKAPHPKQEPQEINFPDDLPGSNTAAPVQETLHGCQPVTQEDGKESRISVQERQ

“anti-human CD40 G28-5 (mouse IgG1) (Biolegend) (antibody)” returned a Monocyte activation (THP1-Xblue, OD655) of 0.12 OD655 and a moDC activation (IL-12p70) of 139 pg/mL.

The values above are taken from US20180194862A1.
